For one substance, Cellular Internalization EC50 (β-Arrestin Luminescence Assay) and Efficacy - maximal response results are on record in patent publication US20240165282A1, “CONFORMATIONAL CONSTRAINED SOMATOSTATIN RECEPTOR 3 PEPTIDE LIGANDS AND THEIR CONJUGATES AND USES THEREOF” (STARGET PHARMA LTD., priority 2021, published 2024).

For this assay, the target named is human cloned somatostatin receptor 2 (human) (UniProt P30874). Description: cell-based or functional assay.
Chain of human cloned somatostatin receptor 2 (human) (P30874 whole entry): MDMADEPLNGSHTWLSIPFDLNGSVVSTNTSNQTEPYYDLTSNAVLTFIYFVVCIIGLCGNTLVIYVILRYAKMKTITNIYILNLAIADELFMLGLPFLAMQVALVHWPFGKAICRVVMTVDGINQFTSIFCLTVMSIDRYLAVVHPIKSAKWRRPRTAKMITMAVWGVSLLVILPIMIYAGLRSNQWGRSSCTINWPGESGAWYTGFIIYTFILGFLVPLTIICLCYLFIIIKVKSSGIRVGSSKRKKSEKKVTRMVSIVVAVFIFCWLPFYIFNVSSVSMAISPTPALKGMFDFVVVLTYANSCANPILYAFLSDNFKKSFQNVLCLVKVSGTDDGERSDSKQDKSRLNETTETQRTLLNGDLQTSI

“SRIF-28 (from UniProt P61278 89-116) (ligand)” displayed a Cellular Internalization EC50 (β-Arrestin Luminescence Assay) of 3 nM and an Efficacy - maximal response of 47500 RLU.
